The values below come from the DeepSol protein solubility set.

The series can be described thus: soluble on expression in E. coli; label from the status in PepcDB or PDB records.
“MGSDKIHHHHHHVSPSILGQGEVEQLLTGTYRSLQNDPGRDTWVLFDMRGENLINTYLSGSNDFVNNEIPSNNGTLLTMWRGYYKAIYNANTTLSILSNLEPSEKNTHIEAQARFLRAYAYYCLATRWDGVPIIKDNTLENVKRDKQSAVFNFIKEELSFCIDEGHLKPFGETSGAPFTVSLEAAQALMARLALTTGDMETAKNMAETLIANPKFKLSENYDNIFTTTNNSEIIFSFRNNTSEGGQNLYALFTTYNSPMKGSWFLCPSPESEKLFEDPADTRNNTCITTLESVSETYIIMNKFRDFTPLIVSRIAEMYLISAEAQGRNGLNRLNELRRSRGLNPYNNSDIASEEDYQKKVALERRKELYCEGFLFFDLIRTNKISEEVVSMNGKTNLYLPLPESEVQYNPNLNEYN”: the “soluble on expression in E. coli” value was “not soluble”.

For the sequence “MPVLGQIWELSDSQKVGSLDKRGAFVAFKLVAAAQQGKPVANSSLYDSSLQPPRFAPPVPPANMQHHFQPSFPSVGRAPPVPPPPHPSHPYSISSQQSSPAHPSSAFPPQWPITPTDQAKYDSIFQSLNPVNGKLSGAHVRPVLMNSGLDAHALARIWELSDQDKDGNLDRIEMSVALHLVYRSLQSDPVPAQLPPNLIHPSKAMYAHSSPNFAAPPHPPRPMMGSRAGSVTSLDDVNMSQSYSATMPRAYPPQPGRAYSAQAHVNGSRTSGASTPISASHSIHSFPAGEWPINTGDYADQFAQTDTNKDGLVDGMDMRAPMMTTGLSAQILAHVWALADIKKCGQLNLEQFALTMHLLDMAKRGESIPSELPLHLIPPSFRPPTEPSALHHPAQSVSTPQLPEATSMEIKEALEGENEEMKQLAESIQSMLVERKTAEEAVLQLEADMTIKNSSIKNLQVELATLESTVKQLERQKGEATRRLADYDTQIEQLESACKAQKETKEDTEKRMQQIDEDAKNAEDCKANDEKEMEELKKEIEMLDNQFKTVRGEIVKETSQREQKVAELTTLERKEARDQIQMEKLDAAIENTTKLTEQVSDAVEKSEEEMVQILRSQQRLLSTVIDQSLLSDDTVYGETAGTSSQNHVQQPPDPFASARANPAADPFAQVDQFGSSGHFDAAFPTDPFAQGGFPSDSGFAQSAPAKPAPPRPAPPKSARETPVNDPFAPSQGQSTQPAGFADFADFGSAFN”, the “soluble on expression in E. coli” value is listed as “not soluble”.

“TSEEYYKRKKQIKKLMSDQYAFLDLHGFTLHEDLYFEGIYEGFFFRVCPATEYIKKGYAGKKAIEYVIIESFYRFASEATDMDREVKMSGEYNFGDVHFENHCAGFVPKDWKNPDFKANFDALITIFEREGLLPITKNDWESTFGQHSKKAKDASRKNPQR”: the “soluble on expression in E. coli” value was “not soluble”.

Turning to “MAHHHHHHMSPVLVPTACEDWSLNIDDESAKRFWWNNTYSITLWEETLNIEQQAEKITDGDVWSKFIDLQLRCAFKICSICHSPEGNADMKICCYCGNTVHENCSEPAAPEQIMWKPANLAYVEHMRACFQCQAVNYKEPL”, the “soluble on expression in E. coli” value is on record as “not soluble”.

Turning to “MSLLNSVSAIFLATAMTFAALPQDAQAQDYRFNTVQVDGNQRIETSTIISRMGIERGKTISAGALNDAYQRLLDSGVFETVELIPRGNTLVVKVVEHPTINRINFEGNRRVKDETLEGAIGSQSRRVFTPEQAERDAATIAEIYSTQGRVAATVVPRIIRRSDNRVDLVFEISEGDTIEIERVSFVGNRVFSDRRLRRILETKQAGFLRTFIRSDTFIADRIEFDKQVLRDFYLSRGHVDFRVNSANVEFTRERDAFFLVMDVTEGQQFSFGKITTVSEIPGVEAPAYQDVLKIKPGVVYSPSLVENSIARMERLGLKNGVDFLRVEPRITRNDRDLTLDIEFALVKGPRIFVERIDIEGNTTTLDQVIRRQFRTVEGDPFNPREIRESAERIRALGFFGDANVETREGSTPAQVIVDVDVEEKPTGSLSFGGSYSVSDGFGVAIGLTEDNWLGRGQRLGLTLSTAQDAEQYVLSFTEPQLLGRDLRFDIDLGVANTNSSFASYDTERAFFAPGITFRLGELSTLQLRYRWEASEMVQRTATTVSGAVIASEIAQGKKSSSALGLTYTYDSRIGGLNPNAGVLFEVGVDAAGLGGDNEYFKTSAKAIAQTRVWHEEITLRASLDVGAFTWQGSGFSRAIDRFVIGPNTFRGFEPAGVGPRDQSNGVDDAIGGNYYAVARFEAEFPLGLPEELGLRGGLFYDVGNVWDVSDVNTAGGTIVGADGSFRHVIGFSLLWTTAFGPLRFNFSKALKKETFDKEQSFDLTIQAREGHHHHHH”, the “soluble on expression in E. coli” value is “not soluble”.

For the sequence “MPMISCDMAYGRTDEQKRALSAGLLRVISEATGEPRENIFFVIREGSGINFVEHGEHLPDYVPGNANDKALIAKLK”, the “soluble on expression in E. coli” value was “soluble”.

Turning to “MGSDKIHHHHHHMANDWLELRQHADTGIETIKAHFEGHAYDPHWHDSYLVGLTLSGTQQFHCRRERHRSRPGDAFLLEPGEIHDGDAPVDGGFTYLTFYLDEQWLTNALHGLYESTPGSYSLHFAQTLTREPQLVRSISDSFTTLHNDEMKIVQQSSMDKLLSQITAHCHWRKRLPSQLQSTAVAHRARDYLYAHMGENIGLSDLARETGTDRFTLTRCFKREFHLAPHAWFIQLRLAKARQLLAYGDQPADVAAALGFSDQSHLGRWFQRAYRISPAHYRRLCTNLPDVSRR”, the “soluble on expression in E. coli” value is “not soluble”.

Take “MSLTQEFIDKVSSYLTPDVDIAPISQGAEAIVFTTTTHPYLPRAKDSHQKYIIKYRPPKRYRHPQIDQALTKHRTLNESRLLAKLYLIPGLCVPQLIACDPYNGFIWLEFLGEDLPGGHGFSNLKNFLWMHDQDPYSDLVATTLRKVGRQIGLLHWNDYCHGDLTSSNIVLVRDGARWTPHLIDFGLGSVSNLVEDKGVDLYVLERAILSTHSKHAEKYNAWIMEGFEEVYREQGAKGAKKLKEVTKRFEEVRLRGRKRSMLGEGHHHHHH”: the “soluble on expression in E. coli” value was “not soluble”.

For the sequence “GSMETSMPEYYEVFGEFRGVLMDKRFTKYWEDVEMFLARPDDLVIATYPKSGTTWISEVVYMIYKEGDVEKCKEDAIFNRIPYLECRNEDLINGIKQLKEKESPRIVKTHLPPKLLPASFWEKNCKMIYLCRNAKDVAVSYYYFLLMITSYPNPKSFSEFVEKFMQGQVPYGSWYDHVKAWWEKSKNSRVLFMFYEDMKEDIRREVVKLIEFLERKPSAELVDRIIQHTSFQEMKNNPSTNYTMMPEEMMNQKVSPFMRKGIIGDWKNHFPEALRERFDEHYKQQMKDCTVKFRMEL”, the “soluble on expression in E. coli” value is “soluble”.

Regarding “MGSDKIHHHHHHENLYFQGMRDHVEIGIGREARRTYSLDDISVVSSRRTRSSKDVDTTWHIDAYKFDLPFMNHPSDALASPEFVIEMGKQGGLGVINAEGLWGRHADLDEAIAKVIAAYEEGDQAAATRTLQELHAAPLDTELLSERIAQVRDSGEIVAVRVSPQNVREIAPIVIKAGADLLVIQGTLISAEHVNTGGEALNLKEFIGSLDVPVIAGGVNDYTTALHMMRTGAVGIIVGGGENTNSLALGMEVSMATAIADVAAARRDYLDETGGRYVHIIADGSIENSGDVVKAIACGADAVVLGSPLARAEEAAGKGYFWPAVAAHPRFPRGVVTESVDLDEAAPSLEQILHGPSTMPWGVENFEGGLKRALAKCGYTDLKSFQKVSLHVN”, the “soluble on expression in E. coli” value was “soluble”.

For “MIDEWPVPTAAAAVIGPSGVLATHGDDAKPFALASVTKLLVARAAQVAIEEGVVELDTPAGPDGSTVRHLLAHTSGVAMNSADTVAQVGQRRVYSNFGFGLLAHAIEDAAEIEFGRYLTEAVFEPLGMSTSKLLGGADAAGFGVTSTVSDLARFAGDLLRPALVSQQMHDEATSVQFPGVNGVLPGFGSQRPNDWGLGFEIRDGKTPHWTGSSNSPRTFGHFGQSGTFLWVDPVADLALLVLTDRDFGDWTYPLWPAISDGVLREIGTHLEHHHHHH”, the “soluble on expression in E. coli” value was “not soluble”.

With “MELEDANVTKKVELRPLIGLTRGLPPTDLETITIDAIRTHRRLVEKADELFQALPETYKTGQACGGPQHIRYIEASIEMHAQMSALNTLYSILGFIPKVVVN”, the “soluble on expression in E. coli” value is “soluble”.

With “MGPHSMRYFETAVSRPGLEEPRYISVGYVDNKEFVRFDSDAENPRYEPRAPWMEQEGPEYWERETQKAKGQEQWFRVSLRNLLGYYNQSAGGSHTLQQMSGCDLGSDWRLLRGYLQFAYEGRDYIALNEDLKTWTAADMAAQITRRKWEQSGAAEHYKAYLEGECVEWLHRYLKNGNATLLRTDSPKAHVTHHPRSKGEVTLRCWALGFYPADITLTWQLNGEELTQDMELVETRPAGDGTFQKWASVVVPLGKEQNYTCRVYHEGLPEPLTLRWEPPPST”, the “soluble on expression in E. coli” value is “soluble”.

On to “MSPIDQVLAAACALDASGKAPSLALIKSRLGNKFPMPILIQGLQQFKSMPKAERERLAALSIPEVEEQKPTEPVPLSVTTLAAQLTELQKGFEQAIALKNTEIMQLTNELIELKQRVNQLELQGKSV”, for which the “soluble on expression in E. coli” value is “soluble”.
